Results taken from paper PMC1277818, “Substrate specificity analysis of protein kinase complex Dbf2-Mob1 by peptide library and proteome array screening” (BMC Biochemistry, 2005).

T1: FHHDbf2-H6Mob1TM9 (Saccharomyces cerevisiae, UniProt P22204+P40484)
T1 construct: made in house; host or cells: Hi5 insect cells (baculovirus)
T1 sequence (P22204 1-572): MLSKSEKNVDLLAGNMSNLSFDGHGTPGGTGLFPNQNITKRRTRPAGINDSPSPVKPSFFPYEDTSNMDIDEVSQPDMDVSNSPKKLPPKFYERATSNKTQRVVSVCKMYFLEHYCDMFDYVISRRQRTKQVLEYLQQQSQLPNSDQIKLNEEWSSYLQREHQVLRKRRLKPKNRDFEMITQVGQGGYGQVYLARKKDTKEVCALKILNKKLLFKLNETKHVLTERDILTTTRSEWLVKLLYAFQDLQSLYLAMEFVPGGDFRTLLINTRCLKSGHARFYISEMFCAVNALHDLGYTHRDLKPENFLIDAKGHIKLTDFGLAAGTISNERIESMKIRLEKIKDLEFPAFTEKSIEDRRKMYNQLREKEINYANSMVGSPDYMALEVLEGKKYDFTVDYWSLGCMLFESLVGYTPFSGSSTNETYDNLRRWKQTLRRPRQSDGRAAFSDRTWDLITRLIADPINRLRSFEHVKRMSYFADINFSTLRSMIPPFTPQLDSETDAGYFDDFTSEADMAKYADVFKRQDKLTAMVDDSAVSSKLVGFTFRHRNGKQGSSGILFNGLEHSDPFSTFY
T1 sequence (P40484 1-314 partner): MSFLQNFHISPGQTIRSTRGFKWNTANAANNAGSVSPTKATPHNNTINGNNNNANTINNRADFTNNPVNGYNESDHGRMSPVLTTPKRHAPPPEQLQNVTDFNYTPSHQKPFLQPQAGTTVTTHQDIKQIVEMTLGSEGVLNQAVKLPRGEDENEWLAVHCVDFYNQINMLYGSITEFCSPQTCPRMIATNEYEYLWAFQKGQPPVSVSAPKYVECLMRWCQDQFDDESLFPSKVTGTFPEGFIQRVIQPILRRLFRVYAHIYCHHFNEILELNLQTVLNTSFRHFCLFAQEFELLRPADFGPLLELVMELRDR


Biological target: T1, FHHDbf2-H6Mob1TM9
Assay: Yeast proteome chip assay
Type: biochemical
Conditions: [γ-33P]ATP, chips in duplicate
Method: The relatively low sequence complexity of the Dbf2 phosphorylation motif diminished the power of using genome-wide bioinformatics screens to identify putative substrates. Accordingly, we carried out a proteome array screen to identify putative yeast substrates. […] After taking into account the proteins phosphorylated in the negative controls, 67 proteins were determined to be putative Dbf2-Mob1 substrates (Table 3).
Yeast proteome microarrays were prepared as previously described. Overexpressed GST-tagged yeast proteins were purified from ~4,400 yeast strains and spotted on slides. To determine the optimal amount of kinase to use for probing proteome chips, we performed trial assays as described (J. Ptacek et al., submitted). […] The full proteome array was probed with 4 μl ^FHHDbf2-^H6Mob1^TM9 in 200 μl of DKB supplemented with [γ-^33P]ATP. As a control, ^FHHDbf2(N305A)-^H6Mob1^TM9 was used to probe the proteome array. […] To control for autophosphorylated proteins, the proteome array was probed with 200 μl of DKB supplemented with [γ-^33P]ATP. Proteome chips were assayed in duplicate in each case. Data analysis was performed as described (J. Ptacek et al., submitted). Briefly, signals were analyzed by a computer algorithm designed to normalize background and identify signals as positive if 3 of 4 spots (each protein is spotted twice on each slide and each kinase or control was tested on 2 slides) were 2 standard deviations above background and the fourth spot was 1.5 standard deviations above background.

[1] = Table 3, GST fusion proteins on proteome chip, computer analysis
[2] = Table 4, the 25 proteins with highest signal relative to protein amount

Molecule | Slide Signal (after normalization) [1] | Slide Signal (after normalization) [2]
YNL101W: GST fusion yeast protein on proteome chip (protein, UniProt P50944 1-713, looked up, GST tag, GST fusion yeast protein on proteome chip) Vacuolar amino acid …: MVTNNGDGEHLGIRRNGNLRHPSNNMKIPRRAQSTVLNSNPFYSRKYSMSTLTPRDICRSVDSRVFVDMSSPNFQTLEDPHRDEIINSVRLNYLNSSKRSSVSHGNEAIPRVNPTKNSSASTIAAANVDSDDDETNLSSAGGDITHDIYKLVKAEDPKRLRRPRSMENVTPKIEHHTKLSSASGLNVPGGFRREFIVNKKRQEHQLNDSASSDFTSHESDSINQSSPSSNQDIDKVPFLTRNFLEFLYVFGHFAGESFEDDFIPDSSNMMIRGEDERSALLSRPDHMKVLPSAKGTTSTKKVFLILLKSFIGTGVLFLPNAFHNGGLFFSVSMLAFFGIYSYWCYYILVQAKSSCGVSSFGDIGLKLYGPWMRIIILFSLVITQVGFSGAYMIFTAKNLQAFLDNVFHVGVLPLSYLMVFQTIIFIPLSFIRNISKLSLPSLLANFFIMAGLVIVIIFTAKRLFFDLMGTPAMGVVYGLNADRWTLFIGTAIFAFEGIGLIIPVQDSMRNPEKFPLVLALVILTATILFISIATLGYLAYGSNVQTVILLNLPQSNIFVNLIQLFYSIAIMLSTPLQLFPAIKIIENKFFPKFTKIYVKHDDLTTRVELRPNSGKLNWKIKWLKNFIRSIIVIIVVSIAYFGSDNLDKFVSVIGSLACIPLVYIYPSMLHLRGNSLPETKGEFWRFKPMLDTILIFFGIASMLYTSYQSIFGV | 2.1486 | 2.1486
YDL019C: GST fusion yeast protein on proteome chip (protein, UniProt Q12451 2-1283, looked up, GST fusion, GST fusion yeast protein on proteome chip) Oxysterol-binding protein …: SREDLSIAEDLNQVSKPLLKVKLLEVLGQGDFKHLKALVDNEFQPKDDPSVQQVLNLILHYAVQVAPILLIKEIVAHWVDQVGDEKSSSKSDDGIHLDLNYQDENGNTPLHLAAAQSRSDVISFLLSQKSINDCVKNKAHQQPLDMCKDLNVAQMIQLKRDDYFLETVHSLRAAMNKRDFSKLDSIWKNPRNLNLLDINGIDPETGTTLLYEYSQKKDIEMCQWLLKHGAEATVKDGKGRSPLDLVKNIKLPAKPSNNVTPEIKLKNLLEKNLREQAIVHEDVASSKPPTYKGFLKKWTNFAHGYKLRWFILSGDGNLSYYKDQSHVDRPRGTLKVSTCRLHIDSSEKLNFELLGGITGTTRWRLKGNHPIETTRWVNAIQSAIRFAKDKEILNKKKAVPPSLALKNKSPALISHSKTQGSLPEASQYYQHTLHKEVIQPSSVSLYRRPSNNLSVVSSEIQLNDNLTESGKRFVSKMIENRLDGSKTPVGVHTGSALQRVRSSNTLKSNRSMQSGSGVASPIDKVPNGANLSQSNTTTGSTASLSDNNYIDNFEGDEANSDDEEEDLGINFDRDEEYIKAQYGPYKEKLDMYEQAISIELSSLIELIEQEEPSPEVWLTIKKSLINTSTIFGKLKDLTYKRDKRLVDMVSKQGDVNNVWVQSVKELEMELSNKTERLASIDKERRGLKKILHKKLLESHATAGNKESLENDKEQESDTTASTLGQIAKFISATKEEDEASDADEFYDAAELVDEVTELTEAHPEISTAAAPKHAPPPVPNETDNDSQYVQDEKSKIESNVEKTSQKFEKQNNLVTEDEPKTDQSLKNFKAEDKESQVKEKTKEIASSVIGEKTIVAVTTVQKRKEEYLLKEGSYLGYEDGIRKRLSMDKDDRPKISLWAVLKSMVGKDMTRMTLPVTFNEPTSLLQRVAEDLEYSELLDQAATFEDSTLRTLYVAAFTASSYASTTKRVAKPFNPLLGETFEYSRPDKQYRFFTEQVSHHPPISATWTESPRWDFWGESFVDTKFNGRSFNVKHLGLWHIKLRPNDNEKEELYTWKKPNNTVIGILIGNPQVDNHGEVNVVNHTTGDHCKLYFKARGWRSSGAYEITGEVYNKKKQKVWILGGHWNEAIFAKKVVKDGDLSLEKTRTAASAGNGPTDDGTKFLIWKANDRPEEPFNLTPFAITLNAPQPHLLPWLPPTDTRLRPDQRAMEDGRYDEAGDEKFRVEEKQRAARRKREENNLEYHPQWFVRDTHPITKAKYWRYTGKYWVKRRDHDLKDCGDIF | 0.9962 | 0.9962
YNR006W: GST fusion yeast protein on proteome chip (protein, UniProt P40343 1-622, looked up, GST fusion, GST fusion yeast protein on proteome chip) Vacuolar protein …: MSVSTPSELDALIEQATSESIPNGDLDLPIALEISDVLRSRRVNPKDSMRCIKKRILNTADNPNTQLSSWKLTNICVKNGGTPFIKEICSREFMDTMEHVILREDSNEELSELVKTILYELYVAFKNDSQLNYVAKVYDKLISRGIKFPEKLTLSNSPTAMFDSKTPADWIDSDACMICSKKFSLLNRKHHCRSCGGVFCQEHSSNSIPLPDLGIYEPVRVCDSCFEDYDLKRHDDSKKSKKHRHKRKKDRDYSTPEDEEELIRKAIELSLKESRNSASSEPIVPVVESKNEVKRQEIEEEEDPDLKAAIQESLREAEEAKLRSERQKASRQMQPQQPSPQPQPIHSVDLSDEEKDSIYMFASLVEKMKSRPLNEILEDSKLQNLAQRVFASKARLNYALNDKAQKYNTLIEMNGKISEIMNIYDRLLEQQLQSINLSQQYTLPQVPSDPYNYLTENVQNPAESYQTPPLQQLSSHQYKPQQDVSRQQSVKANSSPTTNIDHLKTIDVTPHAQQKPQSHVELAPSDPPYPKEEAEDEGTQAVQDEESSTQESRERPYPVETENGETSINKRPQGITRYDFPTVPARKFVQPESTVPLPASSSEIPIKEERPPSPQEELLIEL | 1.1429 | 1.1429
YMR239C: GST fusion yeast protein on proteome chip (protein, UniProt Q02555 1-471, looked up, GST fusion, GST fusion yeast protein on proteome chip) Ribonuclease 3: MGSKVAGKKKTQNDNKLDNENGSQQRENINTKTLLKGNLKISNYKYLEVIQLEHAVTKLVESYNKIIELSPNLVAYNEAVNNQDRVPVQILPSLSRYQLKLAAELKTLHDLKKDAILTEITDYENEFDTEQKQPILQEISKADMEKLEKLEQVKREKREKIDVNVYENLNEKEDEEEDEGEDSYDPTKAGDIVKATKWPPKLPEIQDLAIRARVFIHKSTIKDKVYLSGSEMINAHNERLEFLGDSILNSVMTLIIYNKFPDYSEGQLSTLRMNLVSNEQIKQWSIMYNFHEKLKTNFDLKDENSNFQNGKLKLYADVFEAYIGGLMEDDPRNNLPKIRKWLRKLAKPVIEEATRNQVALEKTDKLDMNAKRQLYSLIGYASLRLHYVTVKKPTAVDPNSIVECRVGDGTVLGTGVGRNIKIAGIRAAENALRDKKMLDFYAKQRAAIPRSESVLKDPSQKNKKRKFSDTS | 1.593 | 1.593
YIL135C: GST fusion yeast protein on proteome chip (protein, UniProt P40463 1-436, looked up, GST tag, GST fusion yeast protein on proteome chip) Protein VHS2: MDTSNHNQDHDSHVAAQRENDNNYMPPSPSMSESSMIFERNVEDPSYLYKTVSNNAANSLSRQSSRTSLFNHNNSSNRNFHNLSQRSSAVNLHLQPSRTNESIASYQTYNPDFVVQTPLDHRRTLENFVPPALDAGCSIVTDDTTGLDDVDMVYSRRPSTIGLDRALGRTRSLSSQSFDNETSPAHPRSPNDHGSRLLRFYSYADMLSDDNNNNVSNATSTSSTANPLRRPPMQGHYSFSSSLLNSPSHLPSPPSASASPPQHMNFTNPFIISRRYSNTTINNANGGTSAGSTTGAALSRSPSNQQYLLKQQRSPSGSARSRRNSNRPGSAANIMIGKPKSKFHMESSGSEGFSSEEEDNTMIERDKLNLKQKLQSQLAQPPSIANMVNDNHNNTNKHKNTINNNIKNSPAFTNSNPSSKSNSNSTITSMNPDTTK | 1.116 | 1.116
YBR118W: GST fusion yeast protein on proteome chip (protein, UniProt P02994 2-458, looked up, GST tag, GST fusion yeast protein on proteome chip) Elongation factor 1-alpha: GKEKSHINVVVIGHVDSGKSTTTGHLIYKCGGIDKRTIEKFEKEAAELGKGSFKYAWVLDKLKAERERGITIDIALWKFETPKYQVTVIDAPGHRDFIKNMITGTSQADCAILIIAGGVGEFEAGISKDGQTREHALLAFTLGVRQLIVAVNKMDSVKWDESRFQEIVKETSNFIKKVGYNPKTVPFVPISGWNGDNMIEATTNAPWYKGWEKETKAGVVKGKTLLEAIDAIEQPSRPTDKPLRLPLQDVYKIGGIGTVPVGRVETGVIKPGMVVTFAPAGVTTEVKSVEMHHEQLEQGVPGDNVGFNVKNVSVKEIRRGNVCGDAKNDPPKGCASFNATVIVLNHPGQISAGYSPVLDCHTAHIACRFDELLEKNDRRSGKKLEDHPKFLKSGDAALVKFVPSKPMCVEAFSEYPPLGRFAVRDMRQTVAVGVIKSVDKTEKAAKVTKAAQKAAKK | 2.619 | 2.619
